In patent US20080166343A1 (CSL, published 2008):

Columns and labels:
[1] = molecular target: T1, human IL-13Rα1 on cells (NHDF cells; cells of whole human blood) (human, UniProt P78552 27-427); test: cell-based or functional assay
T1 sequence: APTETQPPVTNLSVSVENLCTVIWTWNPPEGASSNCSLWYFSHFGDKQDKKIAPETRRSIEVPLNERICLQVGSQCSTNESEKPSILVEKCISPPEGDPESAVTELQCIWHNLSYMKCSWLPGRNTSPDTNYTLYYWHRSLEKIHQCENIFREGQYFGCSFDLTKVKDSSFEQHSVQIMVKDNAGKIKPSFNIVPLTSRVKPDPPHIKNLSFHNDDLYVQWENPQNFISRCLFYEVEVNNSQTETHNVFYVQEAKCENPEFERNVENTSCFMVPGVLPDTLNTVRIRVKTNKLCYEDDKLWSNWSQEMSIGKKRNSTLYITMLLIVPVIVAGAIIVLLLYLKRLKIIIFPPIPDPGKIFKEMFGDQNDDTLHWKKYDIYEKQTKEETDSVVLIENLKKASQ

[2] = molecular target: T1, human IL-13Rα1 on cells (NHDF cells; …); test: cell-based or functional assay; remark: listed apart in the source

- EC50, inhibition of eotaxin release from NHDF cells upon stimulation by IL-13 [1]: 0.614 µg/mL
- EC50, inhibition of eotaxin release from NHDF cells upon stimulation by IL-4 [2]: 0.983 µg/mL
B1: 10G5-3 (antibody, human IgG4 S228P, kappa, V domains shown)
VH: EVQLVQSGAEVKKPGESLKISCKGSGYSFTSYWIGWVRQMPGKGLEWMGVIYPGDSYTRYSPSFQGQVTISADKSISTAYLQWSSLKASDTAMYYCARMPNWGSFDYWGQGTLVTVSS
VL: EIVLTQSPGTLSLSPGERATLSCRASQSISSSYLAWYQQKPGQAPRLLIYGASSRATGIPDRFSGSGSGTDFTLTISRLEPEDFAVYYCQQYEAFGQGTKVEIKR
